Assays:
[1] = biological target: carcinoembryonic antigen (CEA) (UniProt P06731); test: analytical size exclusion HPLC, radioiodinated bsAb with 10-20× molar excess of CEA
[2] = biological target: Ac-Lys(DTPA)-Tyr-Lys(DTPA)-Lys(Tscg-Cys)-NH2 (IMP 192); test: in vivo, GW-39 tumor in nude mice, calculated from biodistribution assuming one peptide per bsAb; 3 h after peptide
[3] = biological target: Ac-Lys(DTPA)-Tyr-Lys(DTPA)-Lys(Tscg-Cys)-NH2 (IMP 192); test: in vivo, GW-39 tumor in nude mice, calculated from biodistribution assuming one peptide per bsAb; 1 h after peptide
[4] = biological target: Ac-Lys(DTPA)-Tyr-Lys(DTPA)-Lys(Tscg-Cys)-NH2 (IMP 192); test: in vivo, GW-39 tumor in nude mice, calculated from biodistribution assuming one peptide per bsAb; 30 min after peptide
[5] = biological target: Ac-Lys(DTPA)-Tyr-Lys(DTPA)-Lys(Tscg-Cys)-NH2 (IMP 192); test: in vivo, GW-39 tumor in nude mice, calculated from biodistribution assuming one peptide per bsAb; 24 h after peptide
[6] = biological target: mono HSG peptide (peptide containing a single HSG substituent and a thiol); test: BIAcore, mono HSG peptide coupled by its thiol to a CM-5 chip

carcinoembryonic antigen (CEA), sequence (P06731 35-685 limits assumed): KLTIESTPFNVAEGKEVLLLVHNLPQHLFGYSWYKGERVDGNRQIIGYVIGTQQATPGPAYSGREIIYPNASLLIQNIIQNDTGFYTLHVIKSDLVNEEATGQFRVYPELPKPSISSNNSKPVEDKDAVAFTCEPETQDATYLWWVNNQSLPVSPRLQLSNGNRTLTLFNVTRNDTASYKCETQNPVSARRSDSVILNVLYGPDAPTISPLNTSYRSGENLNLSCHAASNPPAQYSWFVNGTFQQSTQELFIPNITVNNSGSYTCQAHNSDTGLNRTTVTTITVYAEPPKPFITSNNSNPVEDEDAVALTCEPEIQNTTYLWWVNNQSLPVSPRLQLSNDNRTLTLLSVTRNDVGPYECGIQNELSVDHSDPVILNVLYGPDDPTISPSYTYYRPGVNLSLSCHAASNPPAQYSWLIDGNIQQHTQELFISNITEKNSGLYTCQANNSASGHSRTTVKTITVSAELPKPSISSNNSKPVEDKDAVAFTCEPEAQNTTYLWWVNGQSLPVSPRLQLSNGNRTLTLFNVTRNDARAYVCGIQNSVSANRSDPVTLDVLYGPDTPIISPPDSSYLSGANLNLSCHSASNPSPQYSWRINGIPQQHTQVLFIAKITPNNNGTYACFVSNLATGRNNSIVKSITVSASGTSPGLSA

hMN-14 × 734 (Fab × Fab) bsAb (bispecific antibody)
percent of bsAb bound [1]: 90%
% saturation on hMN-14 × 734 (available DTPA binding sites on the tumor bound bsAb filled with 99m-Tc-IMP-192) [2]: 25%
% saturation on hMN-14 × 734 (available DTPA binding sites on the tumor bound bsAb filled with 99m-Tc-IMP-192) [3]: 25.8%
% saturation on hMN-14 × 734 (available DTPA binding sites on the tumor bound bsAb filled with 99m-Tc-IMP-192) [4]: 25.4%
% saturation on hMN-14 × 734 (available DTPA binding sites on the tumor bound bsAb filled with 99m-Tc-IMP-192) [5]: 28%

hMN-14 × m679 F(ab′)2 bsMAb (bispecific antibody)
Kd [6]: 1.5 nM
